Measured values as given in PMC1783847.

Molecular target: Bluetongue virus serotype 10 outer capsid protein VP2, unmodified full-length (Bluetongue virus serotype 10 (BTV-10))
Assay: SDS-PAGE of non-denatured samples with western blot

Bluetongue virus serotype 10 outer capsid protein VP2, unmodified full-length (natural protein)
stoichiometry N: 3
